Patent US20260035463A1 (MINGHUI PHARMACEUTICAL HANGZHOU, published 2026)

Molecular target: T1, recombinant human PD-1 protein (human, UniProt Q15116 25-167, limits assumed)
T1 construct: The construct is not described; also called human recombinant PD-1
Assay: screening of the anti-PD-1 phage display library; method not detailed

T1 sequence (Q15116 25-167 limits assumed): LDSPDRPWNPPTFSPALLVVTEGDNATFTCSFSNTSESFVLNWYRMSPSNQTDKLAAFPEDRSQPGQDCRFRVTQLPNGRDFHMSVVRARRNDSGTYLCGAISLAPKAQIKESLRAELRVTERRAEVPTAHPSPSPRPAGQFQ

B1: Anti-PD-1 sdAb VHH (VHH)
VHH: QVQLVESGGGLVQPGGSLRLSCATSGSRRSIYAMGWFRQAPGKGLEFVAGIGWAYATTYYADSVKGRFTISRDNTKNTLYLQMNSLRAEDTAVYYCAADLDHSGFDYWGQGTLVTVSS
notes: Obtained from an alpaca phage display library; also called anti-PD-1 VHH antibody; VHH single-domain antibody
  binding result: binds
